Blank lines part the entries; values can stand above or below the molecule they belong to.
Tests used:
[1] = molecular target: T1, KlGal1p with N-terminal His6-tag (NHKlGal1p) (Kluyveromyces lactis) (UniProt P09608); assay: galactokinase inhibition titration; 10 nM NHGal1p with increasing concentrations of NHKlGal80p or NHKlGal80-KR56Ap; ADP production coupled to pyruvate kinase and lactate dehydrogenase (NADH consumption); apparent KD from the decline in KlGal1p activity
T1 sequence: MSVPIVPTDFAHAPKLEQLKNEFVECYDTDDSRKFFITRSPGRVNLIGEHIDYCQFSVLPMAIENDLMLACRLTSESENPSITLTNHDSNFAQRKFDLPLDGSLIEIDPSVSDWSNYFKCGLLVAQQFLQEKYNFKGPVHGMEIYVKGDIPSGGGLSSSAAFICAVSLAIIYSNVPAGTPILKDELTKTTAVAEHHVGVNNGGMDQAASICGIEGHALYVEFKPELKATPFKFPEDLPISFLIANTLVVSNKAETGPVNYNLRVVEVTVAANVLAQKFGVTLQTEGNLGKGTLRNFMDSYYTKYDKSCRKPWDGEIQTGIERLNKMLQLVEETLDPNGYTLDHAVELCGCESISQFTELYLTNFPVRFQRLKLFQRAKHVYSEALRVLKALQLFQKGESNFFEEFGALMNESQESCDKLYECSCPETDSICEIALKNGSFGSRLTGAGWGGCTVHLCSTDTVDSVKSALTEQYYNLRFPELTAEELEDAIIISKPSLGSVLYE

[2] = molecular target: T1, KlGal1p with N-terminal His6-tag (NHKlGal1p) (Kluyveromyces lactis)
[3] = molecular target: T2, KlGal1p with N-terminal His6-tag (NHKlGal1p) (Kluyveromyces lactis, UniProt P09608 1-503); assay: galactokinase inhibition titration; 10 nM NHGal1p with increasing concentrations of NHKlGal80p or NHKlGal80-KR56Ap; ADP production coupled to pyruvate kinase and lactate dehydrogenase (NADH consumption); apparent KD from the decline in KlGal1p activity; conditions: both partners purified
T2 construct: KlGal1p, galactokinase (Gal1 protein) of Kluyveromyces lactis; also called NHGal1p; source: E. coli Rosetta (DE3)-pLys, from pETNHG1, purified as described in Anders et al, 2006b; not shown: His6, N-terminal, kept
T2 sequence (looked up): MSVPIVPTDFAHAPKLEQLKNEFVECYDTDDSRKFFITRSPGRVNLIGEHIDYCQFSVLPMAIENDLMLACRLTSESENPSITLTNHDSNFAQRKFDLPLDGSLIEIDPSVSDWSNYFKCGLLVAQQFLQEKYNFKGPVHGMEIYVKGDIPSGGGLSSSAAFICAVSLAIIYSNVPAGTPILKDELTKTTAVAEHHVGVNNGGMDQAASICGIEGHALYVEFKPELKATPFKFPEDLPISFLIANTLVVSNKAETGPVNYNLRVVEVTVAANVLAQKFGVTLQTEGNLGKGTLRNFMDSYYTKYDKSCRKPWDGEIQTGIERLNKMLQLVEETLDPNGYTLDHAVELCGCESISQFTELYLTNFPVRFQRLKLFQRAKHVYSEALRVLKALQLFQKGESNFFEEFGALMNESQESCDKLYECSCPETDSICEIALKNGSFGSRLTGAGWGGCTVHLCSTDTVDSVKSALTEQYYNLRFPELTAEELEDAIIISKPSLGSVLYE

Kd [1]: 3.1 µM | relative galactokinase activity of KlGal1p with KlGal80-K5A/R6Ap (in % of the activity in the absence of KlGal80p or its peptide) [2]: 93.6%
Molecule: KlGal80-K5A/R6Ap with N-terminal His6-tag (NHKlGal80-K5A/R6Ap) (from UniProt Q06433 1-457) (natural protein)

relative galactokinase activity of KlGal1p with the KlN17G80 peptide alone (in % of the activity in the absence of KlGal80p or its peptide) [2]: 99.4%
Molecule: MNNNKRSKLSTVPSSRP [peptide KlN17G80 (N-terminal 17 residues of KlGal80p)]

Kd [3]: 0.081 µM
B1: KlGal80p with N-terminal His6-tag (NHKlGal80p) (natural protein, Kluyveromyces lactis)
chain: MNNNKRSKLSTVPSSRPIRVGFVGLTSGKSWVAKTHFLAIQQLSSQFQIVALYNPTLKSSLQTIEQLQLKHATGFDSLESFAQYKDIDMIVVSVKVPEHYEVVKNILEHSSQNLNLRYLYVEWALAASVQQAEELYSISQQRANLQTIICLQGRKSPYIVRAKELISEGCIGDINSIEISGNGGWYGYERPMRSPEYLYDIESGVNLISNSFGHTIDVLQYITGSYFQKINAMISNNIPTQFLLDENGKRTKETISKTCPDHLLFQGILENGKVPVSCSFKGGTPVKKLTKNLVIDIHGTKGDLKIEGDAGFVEISNLVLYFYGIKNGNGSSNGTDNNGAAAIKDKEKVTKSPSPSTGTSEEEQTMEVFHLRNYNSVVGNILRIYESIADYHFLGKPESKSSRGPDDLFASTKFDKQGFRFEGFPTFKDAIILHRLIDAVFRSDKEEKTLDVSKIMI
notes: KlGal80p, Gal80 protein of Kluyveromyces lactis, wild type; 457 residues by the printed fragment aa 40-457; also called KlGal80p wild-type; source: E. coli Rosetta (DE3)-pLys, from pETNHG80, purified as described in Anders et al, 2006b; not shown: His6, N-terminal, kept

Source: article PMC7556753, “A double role of the Gal80 N terminus in activation of transcription by Gal4p” (Life Science Alliance, 2020)
